The results in this text go back to PMC3912440 (Scientific Reports, 2014).

In the assay the test system is Mononuclear cell-derived human myeloid dendritic cells. It is filed as cell-based. The settings on record: 0.02 μM HagB alone.

B1: HagB: recombinant hemagglutinin B of P. gingivalis, 49.0 kDa protein composed of 350 amino acid residues (protein)
chain: MTVENLRLQRLQNLEHYRFAKNVLTLCRTANIAKLNPKLPELEKAIEMEDLALNPPVANELTPQVIALDEERDRAYQALMSRVRSYAFDEDSQLRNAAARIEDVAARYGNVIRMNYDKETAAIENFLTDLKGENIRPLVTKLGVTALVDRLEKNNKAFADFFLRRLSTDQRGKYDVKALRAETDRTLVAVVRRMDSIDDMEPSPEIRALIELYNRLVANRRALLARRASYGEAAVEKRRAEIAEMLRPLLARIVEEKKTAVFAGRTLGTGKNRHYLITFVAENGDEEDRWYRINGEQLVYVPEDELPKPKKKKKPASSTDTPSEPPVLPDPSQGGSSSGGGEQGSTGGGL
modifications: left off: His6 (from the vector pQE31), end not stated, state not stated
As to B1, the “CCL3/MIP-1α, CCL4/MIP-1β, and TNFα responses induced” value is reported as “strong”; the CSF2/GM-CSF response induced entry was “weaker”.
